Substrate: O=C1Oc2cc(O)ccc2/C1=C\c1ccc(O)cc1
Settings: Bos taurus
Description: Activity at calf thymus gland topoisomerase 1 assessed as conversion of supercoiled pBR322 DNA to relaxed form by Lineweaver-Burke plot

B1: DNA topoisomerase (Bos taurus), A0JN73 (protein)
chain: MIFPAAHRALRGLPRPGTRALTRAAMEVALRGVRKILCVAEKNDAAKGIADLLSGGRMRRREGLSRFNKIYEFDYHLCGQNVTMVMTSVSGHLLAHDFRMQFRKWQSCNPLVLFEAEIEKYCPENFVDIKKTLEREAQQCQALVIWTDCDREGENIGFEVIHVCKAVKPSLQVLRARFSEITTRAVRTACENLTEPDQRVSDAVDVRQELDLRIGAAFTRFQTLRLQKIFPEVLAEQLISYGSCQFPTLGFVVERFKAIQAFVPEVFHKIRVTHDHRDGVVEFSWKRHRLFNHTACLVLYQMCMEDPRAMVVEVRSKAKSKWRPQALDTVELEKLASRKLRINAKETMRIAEKLYTQGYISYPRTETNIFPKDLDLAALVEQQTPDPRWGAFARNILERGGPTPRNGNKSDQAHPPIHPTKYTDSLQGDEQRLYELIVRHFLACCSQDAQGQETTVEIDIAQERFVAHGLMILARNYLDVYPYDRWSDKTLPVYEQGTCFQPSTVEMVDGETSPPQLLTEADLIALMEKHGIGTDATHAEHIETIKARMYVGLTPDKRFLPGHLGMGLVEGYDSMGYEMSKPDLRAELEADLKLICEGKKDKLVVLHQQVQKYKQVFIEAVAKARKLDEALSQYFGAATEVAPQDALPAVPEPIRKCPQCSRDMVLKTRKSGGFYLGCTGFPECRSAVWFPDSVLEASRDVSVCPVCQPHPVYRLKFKFKRGSLPPTMPLEFVGCIGGCDETLREILALRFSQGAARVSQPASQTSGYLQASQSLNRMDSGQQGQPRPPVTRPSKALTRTLPPPAVESESNSVTCNCGQEALLLTVRKEGPNQGRQFYKCGSGGCSFFLWADSGHPGAGPPSSASRPPGGPLEHPPGSGTLLGGSSRPGSGGSGGASCLCGQPAVTRTVQKEGPNQGRQFHTCAQPREHQCGFFQWVDENVAPGTFGGPLWPGSRRGTQGLEARSKRPRAGSSDTGSATKKPRKCSLCHQPGHTRPFCPQNR
With B1 the Km was 0.0111 µM.
